# Measurements reported in patent publication US20160178645A1 (University of California, published 2016).
# B1: mHttex1-GFP (truncated expanded repeat Httn exon 1 protein fused at the C-terminus to EGFP) (other)
# chain: MATLEKLMKAFESLKSFQQQQQQQQQQQQQQQQQQQQQQQQQQQQQQQQQQQQQQQQQQQQQQQQQQQQQQQQQQQQQQQQQQQQQQQQQQQQQQQQQQQQQQQQQQQQQQQQQQQQQQ
# notes: Expressed in Httl4A2.6 inducible PC12 cells after Ponasterone A induction; tested inside cells or in cell lysate supernatants; No linker between Httn part and EGFP is described; also called N17-103Q-EGFP; GFP-tagged mHtt exon 1 protein; not shown: enhanced green fluorescent protein (EGFP), fused at the C-terminus; EGFP is an eng
# Target: T1, human Aβ1-42 oligomers (human, UniProt P05067 672-713, fluorescently labeled in the TIRF imaging (HiLyte Fluor 647-labeled peptide bought, paragraph 100; 'AlexFlour647-conjugated' in paragraph 102); position not stated)
# T1 construct: domain: Aβ1-42; Preformed oligomers; only the Aβ1-42 peptide was used; also called labeled Aβ1-42 oligomers; HiLyte Fluor 647-labeled Aβ1-42
# T1 sequence (P05067 672-713 limits assumed): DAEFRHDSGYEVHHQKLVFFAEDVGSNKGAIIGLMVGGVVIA
# Test: TIRF single molecule imaging with photobleaching of aggregates formed in Httl4A2.6 lysates (data not shown)
# Protocol: Httl4A2.6 cells were treated with 0.5 μM of Aβ1-40, Aβ1-42, alpha-synuclein, and A53T alpha-synuclein, Alzheimer's disease (AD), and Parkinson's disease—associated oligomers, in the same manner as polyQ seeds. No significant enhancement of intracellular mHttex 1-GFP aggregates was detected (data not shown). Confirming results were obtained from filter retardation-GFP immunoblotting following cell-free aggregation assays; no notable changes in mHttex1 aggregation were found in the cell lysates with up to 5 μM of Aβ1-40, Aβ1-42, alpha-synuclein, and A53T alpha-synuclein oligomeric seeds (data not shown). These observations were further corroborated by the total internal reflection microscopy (TIRF) single molecule imaging results based on photobleaching of mHttex1-GFP aggregates formed in Httl4A2.6 lysates seeded with either AlexFlour647-conjugated polyQ or Aβ1-42 oligomers (data not shown). In contrast to the polyQ oligomers, which were mostly linked with mHttex1-GFP aggregates from photobleaching imaging, few labeled Aβ1-42 oligomers overlapped with GFP fluorescence from the mHttex1-GFP aggregates.
binder,measurement,value
B1,binding result,no binding
